# Experimental data: the supplement of paper PMC12042874
# ± gives the uncertainty stated by the source.
# Experiment: amyloid nucleation score (Sup35N fusion, yeast selection) (log enrichment); library NNK1; higher = more nucleation; inactive = no reads after selection
# Summary of the method: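 Sup35N fusions to peptides of 20 random codons were expressed in psi-negative yeast, induced 24 hours with 100 μM copper sulfate, and grown 7 days at 30°C on medium lacking adenine and uracil. Input and output plasmid inserts were sequenced by Illumina. The nucleation score is the DiMSum log enrichment of output over input reads, centred on the mode score of non-aggregating sequences. Sequences with under 100 input reads were excluded.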
row,Substance,amyloid nucleation score
1,NVHWRDVGGMLFRRNNIRRI,5.222 ± 0.052
2,NVIFPTYRFVRFPSYMTLGW,inactive
3,NVIGISATNASLSLVLISVI,-0.509 ± 0.32
4,NVIID,inactive
5,NVIRTQQSR,0.208 ± 0.52
6,NVISRSLVMYMYKEERPASA,0.031 ± 0.27
7,NVLGLFQLRDSTQNGAMYIL,0.076 ± 0.62
8,NVLTVCCVGLIKSSVSLIEN,8.418 ± 0.065
9,NVRGSWVIMCYFTYVWMLGR,0.017 ± 0.35
10,NVRYFLWGNAETIYL,0.769 ± 0.29
11,NVSISVR,-0.054 ± 0.38
12,NVSKDS,-0.063 ± 0.54
13,NVVYMYSSASEYVWHRRLGF,-0.993 ± 0.43
14,NVWSKWCERGNSDPIVPQAA,-0.458 ± 0.35
15,NVYAMCTITMNYSVVVTHSC,3.35 ± 0.15
16,NVYSIYIINYMAYKVFWDMI,-0.116 ± 0.29
17,NWGCFQYSGTGNRLGTNAPV,-0.999 ± 0.68
18,NWIVCRPDAGMQPRTNNLIV,-0.536 ± 0.58
19,NWLFRQCGSQMMVYVFEFFY,-0.776 ± 0.59
20,NWNCICFLDPISRDTLYPQ,8.489 ± 0.046
21,NWVLHIRDCRAKALPLITDW,-0.034 ± 0.45
22,NYFSQKWFTTGRTPRMMDMW,-0.007 ± 0.32

row,Substance,amyloid nucleation score
1,NYHMIVRLASLKKQW,0.109 ± 0.46
2,NYICMGP,1.38 ± 0.41
3,NYITCC,1.37 ± 0.1
4,NYLTHG,0.311 ± 0.37
5,PAALAWTNFLKASYDLKMGA,-0.587 ± 1.3
6,PAGNNYDNNVSNNGTCKEFW,0.294 ± 0.28
7,PANSSMSSNY,0.091 ± 1.5
8,PCALGECRLVNSVISRGFGR,0.38 ± 1.2
9,PCLSDMRLTSAEKGFV,0.455 ± 0.69
10,PCSFNA,-0.267 ± 0.72
11,PCTPYLSTYVPLNEK,-0.017 ± 0.31
12,PDDNMMVLGVSSADNLLIRL,0.579 ± 0.66
13,PDNRAINVFTLPVAVS,0.71 ± 0.44
14,PEAPPLLIVSGFN,1.2 ± 0.79
15,PECTSVRATGIGDWWEDRGA,-1.46 ± 2.7
16,PELAGRLSVRDLLW,0.059 ± 0.47
17,PESCANSWSMSYGAFGAVYC,inactive
18,PETIW,1.49 ± 0.5
19,PEVSIFFLFLGMVYLMWQWV,-0.839 ± 0.7
20,PFINVLSICLLIWALVPVDS,inactive
21,PFQYADGTFF,4 ± 0.15
22,PFRSFLCRVIRALGLY,0.212 ± 0.95

row,Substance,amyloid nucleation score
1,PFVDFVVSRNYLRL,0.572 ± 0.61
2,PFYRNLFSWAGYILLCGCHE,-0.775 ± 0.75
3,PGFFWHICFG,4.55 ± 0.082
4,PGMNSRCCA,0.48 ± 0.72
5,PGRIYGRSGCYRV,0.482 ± 0.69
6,PGSGCNVFKL,-0.403 ± 0.25
7,PHAHDTWYGYA,-1.13 ± 2.4
8,PHVFRFSFPTLILIGSFNFC,3.14 ± 0.12
9,PIDAPISQLGLCMFGYQEGL,-0.999 ± 1.3
10,PIFMCHSFFQAIICWLSSHL,inactive
11,PIKAPLGASCGFAVRVTRTM,0.391 ± 0.46
12,PKARYRFSWLTRYNLNNRRE,-0.608 ± 0.52
13,PKATRIALPFFLGLCFSMCL,-0.143 ± 0.38
14,PKGIGGGCARTYRHRVRGSR,0.184 ± 0.64
15,PKNKAAVKNSMALPIARQ,-0.192 ± 0.73
16,PLAPMFRLWENSVRYIAKLW,1.22 ± 0.64
17,PLAVVVYDNHRRMGHHVRHG,0.807 ± 0.63
18,PLCSNRIERMLLSVGCGRRR,-0.416 ± 0.44
19,PLFLYRFCKMVPVCILRIGW,0.415 ± 0.3
20,PLKHVRQDWCTKLICNSGNY,-0.357 ± 0.43
21,PLLERHVAGLCGFFF,-0.908 ± 1.2
22,PLSRVLGYVFIISRRTNRIL,-0.206 ± 0.28

row,Substance,amyloid nucleation score
1,PLTGAGFTIEML,-0.132 ± 0.36
2,PMICFGWALIRYVTFQDLPV,0.276 ± 0.45
3,PMNNIVFYGGYLISAFRVRL,6.46 ± 0.089
4,PMNYGSSNA,-0.224 ± 1.7
5,PMSLPTYLRIPRFVLLAWAE,-0.034 ± 0.39
6,PMVIKVLVGCRGYSDLNLYW,4.9 ± 0.079
7,PNLMLAFVL,1.14 ± 0.41
8,PNMARHPFYEDMCFTVDVTN,-1 ± 0.44
9,PNRSLCTVNMCIYVETGFMV,inactive
10,PNYDVMSLYRTNYGNYSHSV,0.471 ± 0.38
11,PPTGTLSRHVRSSVQGMGVA,inactive
12,PQQEGISLSDALPLPEEGRV,0.535 ± 0.4
13,PRCFYLMSGEMISTYECKRT,1.05 ± 0.39
14,PRMFIWMCDRDDVSMYQEFL,0.48 ± 0.55
15,PRRSY,1.41 ± 0.84
16,PRSANCMCDYDRTAM,0.316 ± 0.34
17,PRTLPVLFNLSLKGSSHTYF,4.52 ± 0.064
18,PRYRASVYYKDTRVLLLF,0.512 ± 0.36
19,PSALGMVNGYIRVIYKRR,0.359 ± 0.53
